Assay results taken from the RNAGym collection of RNA variant scans (doi:10.1021/acssynbio.7b00057).

B1: Pistol ribozyme (parent)
chain: GGGUCGUUGUUCCAUAAUCGCGUGGAUAUGGCACGCAAGUUUCUACCGGGCACCGUAAAUGUCCGACUGGAGCCGUUCGGGCGGCUAUAAACAGACCUCAGGCCCGAAGCGUGGCGGCACCUGCCGCCGGUGGUAAAAAAGAUCGGAAGAGCACACGUCU

Variants of: B1
Experiment: aptazyme ON/OFF ratio, guanine; higher = stronger switching; co-transcriptional cleavage with and without guanine

Row | Variant | aptazyme ON/OFF ratio
1 | U8A G9U U10G U11G | 1.09
2 | U7C U8C G9A U11A C12U C13U | 1.21
3 | U7A U8G G9U U10C U11A C12G C13G | 1.28
4 | U7A G9C U10C U11A C12U C13A | 1.04
5 | U7A G9A U10A C12G C13U | 1.41
6 | U7A U8G G9U U10G U11G C13G | 1.19
7 | G9A U10A C12A | 1.74
8 | U7A U8G U10A C12G C13U | 1.21
9 | U7A U8C G9A U10C U11G C13G | 1.37
10 | U8C U10G U11G C13G | 1.2
11 | U7G U8C G9U U10C U11A C12G | 1.98
12 | U7G U8C G9A U11C C12G C13U | 1.16
13 | U7G U10A U11G C12G | 1.21
14 | U8G G9C U10G U11A C13U | 1.06
15 | U8G U10A U11A C12U C13A | 1.3
16 | U7C U8A G9C U11A C12G C13G | 1.17
17 | U8G U11C C12U C13U | 1.3
18 | U8G G9A U10A C12G C13G | 1.3
19 | U7A U8C G9A U11C C13U | 1.1
20 | G9C U11A C12A C13A | 1.26
21 | U7A U8G G9A U10C U11C C13G | 1.03

Row | Variant | aptazyme ON/OFF ratio
22 | U7A U8C G9U U10G U11C C12A C13A | 1.14
23 | U7G U8C G9A U10C U11C C12U | 1.09
24 | U7G G9U U10G C12G C13G | 1.2
25 | U7A U8C U10C U11G C12G C13U | 1.14
26 | U7G U8G G9U U11G C12A C13A | 1.1
27 | U8G G9A U10C U11A C12A C13A | 1.15
28 | U7C U8C G9C U10A U11C C12A C13U | 1.13
29 | U7A U8A G9C U10G U11G C12U | 1.39
30 | U7C U8A G9U C12U C13U | 1.29
31 | U8A G9C U10G C12G C13A | 1.23
32 | U7A U8A U10C C12G C13A | 1.17
33 | U7G G9A U10G U11A | 1.05
34 | U7C U8C G9U U10C C12A C13U | 1.07
35 | U7A U8C G9A U11G C12A C13A | 1.22
36 | U7A U8A C12U C13U | 1.38
37 | U7G U8A G9A U10C U11C C13U | 1.03
38 | G9C U11A C12G C13U | 1.22
39 | U7C U8G G9U U11A C12G C13G | 1.09
40 | U7A G9U U10A U11G C12A C13U | 1.1
41 | U7C U8C U11G C12A | 1.35
42 | U8C U10G C13G | 1.15

Row | Variant | aptazyme ON/OFF ratio
43 | U7A G9A U10G U11G C12G C13A | 1.2
44 | U8G G9U U10G C13U | 1.04
45 | U7G G9C U10C U11G C12U C13G | 1.26
46 | U7G G9A U10G U11C C12U C13A | 1.08
47 | U7A U8A G9A U11G C12U C13A | 1.16
48 | U7G U8G G9U U11G C12G C13A | 1.05
49 | U7C G9C | 1.03
50 | U7A G9U U10C U11G C12A C13G | 1.2
51 | U7C G9U U10A U11C C13A | 1.11
52 | U7C U8G G9C U10G U11C | 1.04
53 | U7C U8G G9C U10G U11C C12A C13G | 1.16
54 | U7A U8G G9A U10C U11G C13G | 1.3
55 | U7C U8G G9U U10C U11G C12G C13G | 1.15
56 | U7A U8A G9U U10A C12G | 1.41
57 | U7G G9A U10C U11G C12A C13U | 1.11
58 | U8G G9C C12G C13G | 1.03
59 | U7G U10C C13A | 1.04
60 | U7C U8G U10G U11C C12G | 1.55
61 | U7A U8A G9C U11G C12U C13U | 1.09
62 | U7G U8A G9A U11A C12G C13U | 1.14
63 | U8G U11C C13G | 1.17

Row | Variant | aptazyme ON/OFF ratio
64 | U8A U10G C12A C13U | 1.23
65 | U7A U8C G9A U10A U11C C13A | 1.02
66 | U8A G9A U10C U11G C12U C13G | 1.22
67 | U8G G9C U10C U11A C12U C13U | 1.04
68 | U7A U8C G9C U10A U11C C12A C13U | 1.14
69 | U7C U8G U10G C13A | 1.4
70 | U7A U8G U10G U11C C12G C13G | 1.22
71 | U7C G9A U10C U11G C12G C13G | 1.11
72 | U7G U8C G9C U10G U11C C12A C13G | 1.18
73 | U8A G9U U10A U11G C12G | 1.24
74 | U7C U8A U10G U11A C12U | 1.16
75 | U7C U8A G9U U10G U11A C12G C13U | 1.2
76 | U8A G9U C12U C13U | 1.36
77 | U8G U10A C13A | 1.14
78 | U7C G9C U10A C12G C13U | 1.12
79 | U7C U8C G9U U10A C12G C13G | 1.12
80 | U7A G9C U11G C12U C13A | 1.42
81 | U7C G9A U11A C12G | 1.28
82 | U7A U8C G9U U10C U11C C12U C13G | 1.08
83 | U7G G9C U10A C12U C13A | 1.09
84 | U7A U8A U10G U11G C12G C13A | 1.07
